Values quoted from earlier work in article PMC9213791.

Target: cardiac troponin C N-terminal domain (cNTnC) N-terminal domain (Homo sapiens) (UniProt P63316)
Sequence (P63316 1-89): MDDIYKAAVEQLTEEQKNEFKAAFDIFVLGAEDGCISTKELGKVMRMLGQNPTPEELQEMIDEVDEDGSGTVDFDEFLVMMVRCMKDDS

Kd: 154 µM
Substance: cardiac troponin I switch peptide switch peptide (from UniProt P19429)
